# Data: US20240407381A1, “FOOD COMPOSITIONS COMPRISING RECOMBINANT CELLS COMPRISING TRANSCOBALAMIN” (IMAGINDAIRY LTD., priority 2021, published 2024)
# B1: transcobalamin: recombinant bovine transcobalamin secreted from A. oryzae and purified from the harvested medium; TC2 expression confirmed (protein, UniProt Q9XSC9 19-432, looked up)
# Transcobalamin-2: NICEITEVDSTLVERLGQRLLPWMDRLSQEQLNPSIYVGLRLSSLQAGAKEAHYLHSLKLSYQQSLLRPASNKDDNDSEAKPSMGQLALYLLALRANCEFIGGRKGDRLVSQLKRFLEDEKRAIGHNHQGHPRTSYYQYSLGILALCVHQKRVHDSVVGKLLYAVEHKPHLLQDHVSVDTMAMAGMAFSCLELSNLNPKQRNRINLALKRVQEKILKAQTPEGYFGNVYSTPLALQLLMGSLRPSVELGTACLKAKAALQASLQHKTFQNPLMISQLLPVLNQKSYVDLISPDCQAPRALLEPALETPPQAKVPKFIDVLLKVSGISPSYRHSVSVPAGSSLEDILKNAQEHGRFRFRTQASLSGPFLTSVLGRKAGEREFWQVLRDPDTPLQQGIADYRPKDGETIELRLVGW
# Experiment: biochemical tests of B12 binding
# Conditions: purified recombinant transcobalamin expressed in A. oryzae
# Description: The entire process was scalable to produce the protein in large batches. Afterwards, the inventors feedbacked the expression information (RNAseq) to the machine learning to create better constructs until reaching optimal transcobalamin expression.
molecule,measurement,value
B1,B12 binding,effective B12 binding
